# T1: R3-IgD4 (human, UniProt P35916)
# T1 construct: recombinant fragment; also called immunoglobin-like domain 4 of VEGFR3
# T1 sequence (receptor fragment, looked up): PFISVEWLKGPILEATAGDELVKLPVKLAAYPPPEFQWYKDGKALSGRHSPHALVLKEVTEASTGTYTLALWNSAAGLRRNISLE
# T2: VEGFR3 IgD5 (individual recombinant immunoglobin-like domain 5 of VEGFR3) (UniProt P35916 422-552, limits assumed)
# T2 construct: domain: IgD5
# T2 sequence (looked up): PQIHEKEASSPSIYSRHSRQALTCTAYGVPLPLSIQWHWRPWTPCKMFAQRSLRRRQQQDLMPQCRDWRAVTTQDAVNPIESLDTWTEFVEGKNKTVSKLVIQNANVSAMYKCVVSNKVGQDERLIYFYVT
# T3: R3-IgD7 (human, UniProt P35916)
# T3 construct: recombinant fragment; also called immunoglobin-like domain 7 of VEGFR3
# T3 sequence (receptor fragment, looked up): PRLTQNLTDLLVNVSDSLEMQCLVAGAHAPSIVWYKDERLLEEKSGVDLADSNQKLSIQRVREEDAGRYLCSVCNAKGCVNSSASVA
# T4: VEGFR3 (Flt-4)-IgD 4-7 (UniProt P35916 331-764, limits assumed)
# T4 construct: domain: IgD4-7; The methods describe no D4-7 construct of VEGFR3; tag and expression host are unknown; also called recombinant IgD4-7 of VEGFR3
# T4 sequence (looked up): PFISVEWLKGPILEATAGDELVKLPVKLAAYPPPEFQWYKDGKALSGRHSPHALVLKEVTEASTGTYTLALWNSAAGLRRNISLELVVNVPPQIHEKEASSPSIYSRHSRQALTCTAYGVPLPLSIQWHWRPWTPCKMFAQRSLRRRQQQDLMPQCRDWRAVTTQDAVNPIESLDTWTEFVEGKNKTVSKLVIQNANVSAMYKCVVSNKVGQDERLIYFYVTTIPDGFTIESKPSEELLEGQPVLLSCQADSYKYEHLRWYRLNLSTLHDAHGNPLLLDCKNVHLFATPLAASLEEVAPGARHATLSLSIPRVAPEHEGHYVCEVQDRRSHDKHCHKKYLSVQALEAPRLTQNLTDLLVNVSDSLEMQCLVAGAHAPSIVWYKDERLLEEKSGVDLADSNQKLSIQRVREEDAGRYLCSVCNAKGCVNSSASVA
# Key:
# R3-IgD4 = molecular target: T1, R3-IgD4; experiment: cell-based competitive ELISA: R2C9-11 absorbed with the soluble domain, then bound to 293T/VEGFR3 cells, OD405
# Procedure: (§1) Panel A, Cell-based competitive. ELISA. HEK293T cells expressing VEGFR3 (293T/VEGFR3) were coated in 96-well plates. The optimal concentrations of R2C7-1 and R2C9-11 mAbs were determined as described previously (data now shown). The optimal concentrations of R2C7-1 and R2C9-11 mAbs were absorbed with the designed doses of the individual immunoglobin-like domains of VEGFR3 (R3-IgDs) antigens, as indicated. The bound antibodies were immune-probed with secondary antibody conjugated with HRP, visualized by addition of ABTS, and measured at OD₄₀₅ using a microplate reader (SpectraMax). Data are represented as means±S.D. of percentage of isotype control (CTL) in triplicate. The epitope locations of R2C7-1 and R2C9-11 on the VEGFR3 antigen are indicated by the black lines spanning IgD6 in the schematics. Panel B, Native gel electrophoresis. The whole extracellular domain (R3-IgD1-7), domain 3-4 (R3-IgD3-4) and domain 6-7 (R3-IgD6-7) were constructed, expressed in the E. coli, and purified using the anti-Myc affinity purification system. The purity and molecular weight of each recombinant protein were visualized with a standard Western blot using anti-Myc antibody as probe (left). The binding of R2C7-1 and R2C9-11 to the VEGFR3 truncated antigens was evaluated with native gel electrophoresis to confirm the epitopes of R2C7-1 and R2C9-11 mAbs (middle and right, respectively).
# (§2) The same methodology was adopted to define the epitopes of the antibodies on VEGFR3. To determine the optimal concentrations of the antibodies for VEGFR3, HEK293T/VEGFR3 transfectants were used as targets (data not shown). Subsequently, the antibodies with optimal concentrations were absorbed with individual recombinant extracellular domains of VEGFR3 (R3-IgDs) for competing the binding epitopes. Similarly, their major epitopes were both located in IgD6, but not in IgD7, of VEGFR3. To conform this finding, Western blotting analysis of different recombinant IgD proteins was carried out using native gel electrophoresis.
# [1] = molecular target: T2, VEGFR3 IgD5 (individual recombinant …); experiment: as above
# Procedure: as §1, §2
# R3-IgD7 = molecular target: T3, R3-IgD7; experiment: as above
# Procedure: as §1, §2
# VEGFR3 (Flt-4)-IgD 4-7 = molecular target: T4, VEGFR3 (Flt-4)-IgD 4-7; experiment: Biacore; antibody as flow analyte, Flt 4-IgD4-7 as ligand
# VEGFR2 (KDR)-IgD 4-7 = molecular target: T5, VEGFR2 (KDR)-IgD 4-7 (human, UniProt P35968 328-753); experiment: Biacore; antibody as flow analyte, KDR-IgD4-7 as ligand
# T5 construct: domain: IgD4-7; Expressed in E. coli; also called recombinant IgD4-7 of VEGFR2; VEGFR2-ED Ig D4-7
# T5 sequence (P35968 328-753 limits assumed): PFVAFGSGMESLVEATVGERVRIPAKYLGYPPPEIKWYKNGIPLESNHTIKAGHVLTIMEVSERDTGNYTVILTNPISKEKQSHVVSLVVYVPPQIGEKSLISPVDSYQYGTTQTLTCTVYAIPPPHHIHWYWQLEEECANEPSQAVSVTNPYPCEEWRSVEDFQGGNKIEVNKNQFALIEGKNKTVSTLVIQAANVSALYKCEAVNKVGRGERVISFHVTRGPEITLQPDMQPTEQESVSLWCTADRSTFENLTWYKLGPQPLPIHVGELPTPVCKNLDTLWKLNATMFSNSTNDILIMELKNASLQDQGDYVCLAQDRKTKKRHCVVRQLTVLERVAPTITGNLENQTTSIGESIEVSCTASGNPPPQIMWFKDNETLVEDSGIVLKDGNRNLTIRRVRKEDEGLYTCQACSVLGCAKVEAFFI
koff (VEGFR3 (Flt-4)-IgD 4-7) [s⁻¹],kon (VEGFR3 (Flt-4)-IgD 4-7) [M⁻¹ s⁻¹],koff (VEGFR2 (KDR)-IgD 4-7) [s⁻¹],Binder,binding result (R3-IgD4),binding result [1],binding result (R3-IgD7)
0.0034,3.2e+06,1.3e-05,"R2C9-11 monoclonal antibody (antibody, V domains shown, Mouse monoclonal antibody purified from hybridoma supernatant; An IgG2a isotype antibody served as its control; also called R2C9-11 mAb) VH: QVQLQQPGAELVKPGASVKLSCKASGYTFTSYWMHWVKQRPGQGLEWIGEINPSNGRTNYNEKFKSKATLTVDKSSSTAYMQLSSLTSEDSAVYYCANLYFDVWGAGTTVTVSS VL: DIVMTQSPSSLSVSAGEKVTMSCKSSQNLLNSGNQKYYLAWYQQKPGQPPKLLIYGASIRESGVPDRFIGSGSGTDFTLTISSVQAEDLAVYFCQSDHSYPYTFGGGTKLEIK",no binding (tested: 10 (unit not printed on the sheet)),no binding (tested: 10 (unit not printed on the sheet)),no binding (tested: 10 (unit not printed on the sheet))
0.0049,1.5e+06,0.0024,"R2C7-1 monoclonal antibody (antibody, V domains shown, Mouse monoclonal antibody purified from hybridoma supernatant; An IgG2a isotype antibody served as its control; also called R2C7-1 mAb) VH: EVQLQQSGPELVKPGASVKISCKASGYSFTDYFINWVIQRHGKSLEWVGRINPYNGGSFYNQKFKDKATLTVDKSSNIAHMELRSLASEDSAIYYCARSGGNGYDYWGQGTTLTVSS VL: DIVMTQAAPSVPVIPGESVSISCRSSKSLLHSNGNTYLYWFLQRPGQSPQLLIYRMSNLASGVPDRFSGSGSGTAFTLRISRVEAEDVGVYYCMQHLEYPYTFGGGTKVEIK",–,–,–

# Reference: patent US20210032353A1 (NATIONAL HEALTH RESEARCH INSTITUTES, published 2021)
